# Where “and” joins values, the source holds several entries; their conditions need not be identical. Equal entries are not always repeated.
# Tests used:
# CCR5 = target: T1, CCR5 (Homo sapiens, UniProt P51681); experiment: Competition binding: inhibition of PRO 140-PE binding to CEM.NKR-CCR5 cells (flow cytometry)
# T1 construct: host or cells: CEM.NKR-CCR5 (transduced human T cell leukemia line)
# Description: Inhibition was assessed on the basis of both MFI (A) and percent cells gated (B).
# Azide was added to block CCR5 internalization during the assay.
# HIV-1 = details: treatment period of 10-14 days, dose-dependent; cited from earlier work
# [1] = human, in vivo
# Description: Individuals were treated in sequential, dose-rising cohorts of 5 subjects (4 active and 1 placebo) each and evaluated for up to 120 days post-treatment. […] Safety assessments consisted of monitoring the following: vital signs (blood pressure, pulse, temperature, etc; hematology (hemoglobin, hematocrit, leukocytes, platelets, etc.); serum chemistries (AST/ALT, alkaline phosphatase, BUN, creatinine, etc.); urinalysis (pH, specific gravity, protein, glucose, leukocytes, etc.); and ECGs (12-lead).
# R5 HIV-2 310340 = experiment: Inhibition of replication in PBMC cultures, RT activity readout: HIV-2 310340; assay type: cell-based
# Description: (§1) Viruses: All virus isolates were grown and titered exclusively in stimulated PBMC as described previously. […] The HIV-2 isolates used in this study have been previously described (Owen, S. M., Ellenberger, D., Rayfield, M., Wiktor, S., Michel, P., Grieco, M. H., Gao, F., Hahn, B. H., and Lai, R. B. 1998. Genetically Divergent Strains of Human Immunodeficiency Virus Type 2 Use Multiple Coreceptors for Entry. J Virol 72:5425-5432) and were obtained from the NIH AIDS Research and Reference Reagent Program.
# (§2) PA14 (Lot # DF-021204) was produced for reagent use in the Research & Development laboratories of Progenics Pharmaceuticals Inc.
# (§3) Inhibition of HIV-1 and HIV-2 replication in PBMC cultures: PBMC were isolated from 34 healthy blood donors with Ficoll-Hypaque (all media from Cellgro, Herndon, Va.) and depleted of CD8+ cells using RosetteSep CD8 depletion cocktail (StemCell Technologies) according to the manufacturer's instructions. Equal numbers of cells from each donor were then separately stimulated with 5 ug phytohemagglutinin/ml (Sigma, St. Louis, Mo.) or with surface-immobilized anti-CD3 antibody OKT3 in RPMI 1640 medium containing 10% fetal calf serum, 100 Units of interleukin-2/ml (NIH AIDS Research and Reference Reagent Program), glutamine, and antibiotics (PBMC culture medium) as previously described. After 72 hours, equal numbers of PBMC stimulated by one of these two methods from each donor were combined for use in infection assays as follows. […] The virus inoculum was adjusted to 400 to 2,000 times the TCID50 per ml in PBMC culture medium, and a 50-ul aliquot was added to each culture. The inhibitory doses refer to the concentrations of the agents present at this point in the culture, when virus, cells, and inhibitors were all present at their final concentrations. Reverse Transcriptase (RT) activity was measured on Day 7 post infection (pi) for HIV-1 and Day 10 pi for HIV-2 by the Reverse Transcriptase Assay, Colorimetric kit, #11 468 120 910, Roche (Switzerland) according to the manufacturer's instructions with the following exception: neither ultracentrifugation nor PEG precipitation of the culture supernatants was performed before viral lysis.
# (§4) The inhibition data were analyzed using GraphPad Prism software (GraphPad Software, San Diego, Calif.). A 4-parameter logistic fit was used calculate the concentration of inhibitor that afforded a 50% and a 90% reduction in RT activity. […] The % inhibitions where best-fit curve reached a top plateau, also as calculated by GraphPad Prism software, are reported as well as maximum percent inhibition (MPI). […] Inhibition curves with a poor sigmoid fit (R^2<0.7) were excluded from data analysis.
# [2] = Phase 1b clinical trial: pharmacokinetics (serum PRO 140 by ELISA); details: non-compartmental analysis, HIV-infected subjects
# R5 HIV-2 310072 = experiment: Inhibition of replication in PBMC cultures, RT activity readout: HIV-2 310072; assay type: cell-based
# Description: as §1, §2, §3, §4
# HIV-1 JR-FL = experiment: Previous studies (300-TD-028): HIV-1 replication in PBMC quantitated by p24 ELISA, JR-FL; assay type: cell-based
# Description: The EC values were measured by p24 ELISA in previous studies, according to published methods. Because the p24 ELISA cannot efficiently quantitate p24 from the HIV-2 isolates used in this study, a commercial ELISA that measures reverse transcriptase was chosen as a readout for both the HIV-2 and HIV-1 infection assays in the present study.
# R5 HIV-2 isolates = experiment: Inhibition of replication in PBMC cultures, RT activity readout: panel of five R5 HIV-2 isolates; assay type: cell-based
# Description: Two well-characterized R5 HIV-1 isolates were included for comparative purposes.
# Viruses: All virus isolates were grown and titered exclusively in stimulated PBMC as described previously.
# Equal numbers of cells from each donor were then separately stimulated with 5 ug phytohemagglutinin/ml (Sigma, St. Louis, Mo.) or with surface-immobilized anti-CD3 antibody OKT3 in RPMI 1640 medium containing 10% fetal calf serum, 100 Units of interleukin-2/ml (NIH AIDS Research and Reference Reagent Program), glutamine, and antibiotics (PBMC culture medium) as previously described. After 72 hours, equal numbers of PBMC stimulated by one of these two methods from each donor were combined for use in infection assays as follows. […] The virus inoculum was adjusted to 400 to 2,000 times the TCID50 per ml in PBMC culture medium, and a 50-ul aliquot was added to each culture. The inhibitory doses refer to the concentrations of the agents present at this point in the culture, when virus, cells, and inhibitors were all present at their final concentrations.
# as §4
# The panel was tested five times on a different PBMC donor pool each time, using the RT ELISA as a readout.
# R5 HIV-1 JR-FL = experiment: Inhibition of replication in PBMC cultures, RT activity readout: HIV-1 JR-FL; assay type: cell-based
# Description: as §1, §2, §3, §4
# [3] = individual assays (Source), previous study, p24 ELISA
# [4] = previous studies n = 33, median
# [5] = Median line of the five R5 HIV-2 isolates
# [6] = HIV-1 JR-FL, R5, median, current study n = 5
# [7] = JR-FL, current study n = 5, mean
# T1 sequence (P51681 whole entry): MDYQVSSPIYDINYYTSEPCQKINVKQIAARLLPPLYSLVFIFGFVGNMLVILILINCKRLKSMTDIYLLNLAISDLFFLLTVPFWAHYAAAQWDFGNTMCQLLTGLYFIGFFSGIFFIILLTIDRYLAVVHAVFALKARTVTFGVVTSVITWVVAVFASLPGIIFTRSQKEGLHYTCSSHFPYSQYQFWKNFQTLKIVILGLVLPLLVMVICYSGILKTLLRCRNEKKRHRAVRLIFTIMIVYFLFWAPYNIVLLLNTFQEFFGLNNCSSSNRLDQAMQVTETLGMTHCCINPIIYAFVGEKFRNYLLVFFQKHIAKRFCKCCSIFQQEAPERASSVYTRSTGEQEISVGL
molecule,measurement,setting,value
"COC[C@@H](c1ccc(C(F)(F)F)cc1)N1CCN(C2(C)CCN(C(=O)c3c(C)ncnc3C)CC2)C[C@@H]1C [SCH-D, 1-[(4,6-dimethyl-5-pyrimidinyl)carbonyl]-4-[4-[2-methoxy-1(R)-4-(trifluoromethyl)phenyl]ethyl-3(S)-methyl-1-piperazinyl]-4-methylpiperidine]",percent of cells gated for positive binding of PRO 140-PE,CCR5; result in words (FIG. 12B),little impact
same,mean reductions in HIV-1 RNA levels,HIV-1,~1 log10
"PRO 140: humanized IgG4,κ anti-CCR5 monoclonal antibody, humanized version of murine mAb PA14 (antibody, chains of the INN, looked up, V domains shown) VH: EVQLVESGGGLVKPGGSLRLSCAASGYTFSNYWIGWVRQAPGKGLEWIGDIYPGGNYIRNNEKFKDKTTLSADTSKNTAYLQMNSLKTEDTAVYYCGSSFGSNYVFAWFTYWGQGTLVTVSS VL: DIVMTQSPLSLPVTPGEPASISCRSSQRLLSSYGHTYLHWYLQKPGQSPQLLIYEVSNRFSGVPDRFSGSGSGTDFTLKISRVEAEDVGVYYCSQSTHVPLTFGQGTKVEIK",dose-limiting toxicity,[1],no dose-limiting toxicity
same,EC90,"CCR5; based on percent cells gated, 5 nM PRO 140-PE",17 nM
same,EC50 (median),"R5 HIV-2 310340; HIV-2 310340, R5",4.7 µg/mL
same,EC90 (median),"R5 HIV-2 310340; HIV-2 310340, R5",>100 µg/mL
same,MPI: Maximum percent inhibition as determined from the plateau of the sigmoidal curve fit,"R5 HIV-2 310340; Virus: R5 HIV-2 310340, individual experiments (Source)",87% and 74% and 90% and 78%
same,"MPI, Median","R5 HIV-2 310340; Virus: R5 HIV-2 310340, median of experiments, poor curve fits (R^2 < 0.7) excluded",83%
same,Terminal half life,[2],approximately 4 d
same,EC50 (median),"R5 HIV-2 310072; HIV-2 310072, R5",0.08 µg/mL
same,EC90 (median),"R5 HIV-2 310072; HIV-2 310072, R5",1.4 µg/mL
same,MPI (maximum percent inhibition),"R5 HIV-2 310072; R5 HIV-2 310072, individual assays (Source)",92% and 96% and 97%
same,"MPI, Median","R5 HIV-2 310072; R5 HIV-2 310072, median of assays with R^2 >= 0.7",96%
same,EC50,HIV-1 JR-FL; [3],0.37 µg/mL and 0.003 µg/mL and 0.03 µg/mL and 0.28 µg/mL and 0.13 µg/mL and 0.05 µg/mL and 0.97 µg/mL and 0.39 µg/mL and <0.001 µg/mL and 0.001 µg/mL and 1.8 µg/mL and 0.24 µg/mL and 0.14 µg/mL and 0.58 µg/mL and 0.45 µg/mL and 0.06 µg/mL and 0.72 µg/mL and 1.9 µg/mL and 0.61 µg/mL and 0.69 µg/mL and 0.12 µg/mL and 0.02 µg/mL and 2.7 µg/mL and 0.48 µg/mL and 0.04 µg/mL and <0.1 µg/mL and 0.43 µg/mL
same,EC90,HIV-1 JR-FL; [3],3.4 µg/mL and 0.01 µg/mL and 18 µg/mL and 5.4 µg/mL and 2.2 µg/mL and 3.1 µg/mL and 12 µg/mL and 0.02 µg/mL and <0.001 µg/mL and 0.13 µg/mL and 0.52 µg/mL and >50 µg/mL and 0.93 µg/mL and 5.8 µg/mL and 8.1 µg/mL and 8.2 µg/mL and 2.1 µg/mL and 10 µg/mL and 11 µg/mL and 0.22 µg/mL and 3.7 µg/mL and 22 µg/mL and 1.2 µg/mL and 34 µg/mL
same,EC50 (mean),"HIV-1 JR-FL; previous studies n = 33, mean",<0.41 µg/mL
same,EC90 (mean),"HIV-1 JR-FL; previous studies n = 33, mean",>10 µg/mL
same,EC50 (median),HIV-1 JR-FL; [4],0.13 µg/mL
same,EC90 (median),HIV-1 JR-FL; [4],3.4 µg/mL
same,"EC50, median over the R5 HIV-2 isolates",R5 HIV-2 isolates; [5],0.12 µg/mL
same,"EC90, median over the R5 HIV-2 isolates",R5 HIV-2 isolates; [5],21 µg/mL
same,median MPI against the R5 HIV-2 isolates,R5 HIV-2 isolates; maximum percent inhibition,96%
same,"MPI, Median Values, all R5 HIV-2 Viruses","R5 HIV-2 isolates; median, all R5 HIV-2 viruses",96%
same,EC50 (median),R5 HIV-1 JR-FL; [6],0.09 µg/mL
same,EC90 (median),R5 HIV-1 JR-FL; [6],7.0 µg/mL
same,EC50 (mean),R5 HIV-1 JR-FL; [7],<0.97 µg/mL
same,EC90 (mean),R5 HIV-1 JR-FL; [7],22 µg/mL
same,MPI (maximum percent inhibition),"R5 HIV-1 JR-FL; R5 HIV-1 JR-FL, individual assays (Source)",100% and 103% and 101% and 110%
same,"MPI, Median","R5 HIV-1 JR-FL; R5 HIV-1 JR-FL, median of assays with R^2 >= 0.7",102%

# From patent publication US20090074766A1, “Methods of inhibiting HIV-2 infection” (priority 2007, published 2009)
